Paper PMC4857615

Tested on: Nc1ncnc2c1ncn2[C@@H]1O[C@H](COP(=O)(O)OP(=O)(O)OP(=O)(O)O)[C@@H](O)[C@H]1O
Assay: purified protein
Conditions: co-substrate acetate, MgCl2 6.6 mM, HEPES 84 mM, 40 °C

Row | Substance | Km [µM] | kcat [s⁻¹] | kcat/Km [M⁻¹ s⁻¹]
1 | EutP (Salmonella enterica subsp. enterica serovar Typhimurium str. LT2) | 500 ± 200 | 657 | 1.31e+06 ± 377000
2 | EutQ (Salmonella enterica subsp. enterica serovar Typhimurium str. LT2) | 500 ± 100 | 434 | 868000 ± 145000
